Assay [1] addresses Histidine-tagged INT-interacting MVP domains (His-iMVP), major vault protein domains 3 to 5. In words: SEC; His-iMVP and His-INT mixed at equimolar ratio (70 μM), overnight at 4 °C, Superdex 75 10/300 GL; band densities of peak fractions on SDS-PAGE.
The target is the same in assay [2]. Description: SPR; Biacore 3000, His-iMVP amine-coupled to CM5 (410, 1860 or 1240 RU), His-INT or variant injected, 25 °C, 50 mM PBS, 150 mM NaCl, pH 7.4; 1-to-1 Langmuir fit; apparent constants.

Values joined by “and” are separate entries in the source; they are usually repeats but may differ in a detail not shown here. Equal entries are not always repeated.

B1: Histidine-tagged vault-interacting domain of vault poly(ADP-ribose)-polymerase (His-INT) (domain or fragment)
chain: CIQHWQDAVPWTELLSLQTEDGFWKLTPELGLILNLNTNGLHSFLKQKGIQSLGVKGRECLLDLIATMLVLQFIRTRLEKEGIVFKSLMKMDDASISRNIPWAFEAIKQASEWVRRTEGQYPSICPRLELGNDWDSATKQLLGLQPISTVSPLHRVLHYSQG
Regarding B1, the stoichiometry N in assay [1] is 1 and 2. Further, in assay [2], the Kd is 262 nM, the T1/2 is 13.9 min, the koff came out at 0.0006 s⁻¹ and the kon amounted to 2280 M⁻¹ s⁻¹. For the same molecule, in assay [2], the stoichiometry N worked out at 1.

B2: His-INTΔC15 (His-INT with 15 amino acids deleted at the C terminus) (domain or fragment)
chain: CIQHWQDAVPWTELLSLQTEDGFWKLTPELGLILNLNTNGLHSFLKQKGIQSLGVKGRECLLDLIATMLVLQFIRTRLEKEGIVFKSLMKMDDASISRNIPWAFEAIKQASEWVRRTEGQYPSICPRLELGNDWDSATKQLLGLQPI
For B2, in assay [2], the Kd was determined as 1800 nM, the T1/2 came out at 9.4 min, the koff came out at 0.00089 s⁻¹ and the kon came out at 485 M⁻¹ s⁻¹. In assay [2], the stoichiometry N came out at 1.

For the origin of these results see article PMC5665922.
